The source of these data is patent publication US20100048468A1 (Amgen, published 2010).

First the molecules themselves.
T1: mouse GLP-1 receptor (mouse, UniProt O35659 22-463)
T1 sequence (looked up): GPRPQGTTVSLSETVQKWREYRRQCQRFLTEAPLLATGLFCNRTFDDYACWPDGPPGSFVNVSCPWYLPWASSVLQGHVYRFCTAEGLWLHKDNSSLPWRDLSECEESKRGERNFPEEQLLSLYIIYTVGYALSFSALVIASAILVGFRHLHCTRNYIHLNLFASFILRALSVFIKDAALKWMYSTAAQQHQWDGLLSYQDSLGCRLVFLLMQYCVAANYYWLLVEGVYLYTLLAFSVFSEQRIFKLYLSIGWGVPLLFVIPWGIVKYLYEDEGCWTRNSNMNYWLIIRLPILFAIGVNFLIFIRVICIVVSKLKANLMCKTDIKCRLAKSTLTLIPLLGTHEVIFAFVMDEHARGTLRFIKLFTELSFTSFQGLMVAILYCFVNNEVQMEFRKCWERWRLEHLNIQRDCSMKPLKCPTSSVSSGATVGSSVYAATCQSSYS

B1: cgGLP-3 (SEQ ID NO: 6 + 8k PEG dumbbell) (peptide)
peptide: HGEGTFTSDVSSYLEGCAAKEFIAWLVKGRG
modifications: not fully specified (residue 17); also: dimer: two peptides on one mal-PEG-mal, one at each end
B2: cgGLP-14 (SEQ ID NO: 7 + 20k PEG dimer) (peptide)
peptide: HGEGTFTSDVSSYLEGCAAKEFIAWLVKGRGSSGAPPPS
modifications: not fully specified (residue 17); also: dimer: two peptides on one forked PEG-(maleimide)2
B3: cgGLP-15 (SEQ ID NO: 8 + 20k PEG dimer) (peptide)
peptide: B2 peptide with V27K, K28N, R30G, G31P
modifications: not fully specified (residue 17); also: dimer: two peptides on one forked PEG-(maleimide)2
B4: H[bAla]EGT FTSDVSSYLEGQAAKEFIAWLVKGRGCSGG (SEQ ID NO: 12) (peptide)
peptide: HXEGTFTSDVSSYLEGQAAKEFIAWLVKGRGCSGG
modifications: bAla (beta aminopropionic acid) at position 8 (GLP-1 numbering; residue 2 of the entry)

Changes are numbered by the printed parent chain. Groups on a side chain read outwards from the residue. No end group written: not given here. maleimide = maleimide group of a PEG-maleimide, coupled to the cysteine thiol (thioether); mPEG 20 kDa = 20 kD mPEG-maleimide, thioether-linked to the Cys; branched PEG 40 kDa = branched polyethylene glycol of 40 kDa

The target of one assay is T2, human GLP-1 receptor (human, UniProt P43220 24-463). Put plainly: cell-based or functional assay.
Target sequence in this assay (P43220 24-463): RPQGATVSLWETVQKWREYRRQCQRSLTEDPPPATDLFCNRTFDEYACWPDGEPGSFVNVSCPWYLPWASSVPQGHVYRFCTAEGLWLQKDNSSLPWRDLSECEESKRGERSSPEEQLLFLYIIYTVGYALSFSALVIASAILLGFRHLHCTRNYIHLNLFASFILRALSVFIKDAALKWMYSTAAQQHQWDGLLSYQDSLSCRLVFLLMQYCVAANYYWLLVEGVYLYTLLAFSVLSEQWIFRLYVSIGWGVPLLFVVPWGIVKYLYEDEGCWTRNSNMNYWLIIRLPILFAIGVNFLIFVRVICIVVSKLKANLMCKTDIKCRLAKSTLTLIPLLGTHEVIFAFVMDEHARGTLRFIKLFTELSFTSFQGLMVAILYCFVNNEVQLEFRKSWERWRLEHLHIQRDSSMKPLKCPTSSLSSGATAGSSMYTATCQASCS
HGEGTFTSDVSSYLEGC([maleimide-mPEG 20 kDa])AAKEFIAWLVKGRG [cgGLP-1 (SEQ ID NO: 6 + 20K PEG)] registered an EC50 human of 12 nM.
Take HGEGTFTSDVSSYLEGC(PEG 30 kDa)AAKEFIAWLVKGRG [cgGLP-7 (SEQ ID NO: 6 + 30k PEG)]: the EC50 human was found to be 0.2 nM.
Still for that read-out and setting: with HGEGTFTSDVSSYLEGC(branched PEG 40 kDa)AAKEFIAWLVKGRG [cgGLP-2 (SEQ ID NO: 6 + 40k branched PEG)] the figure was 0.7 nM.

In another assay the target is T2, human GLP-1 receptor. Put plainly: cell-based or functional assay. The source holds these as a separate data set.
Consider HGEGTFTSDVSSYLEGC(PEG 20 kDa)AAKEFIAWLVKGRGSSGAPPPS [cgGLP-12 (SEQ ID NO: 7 + 20k PEG monomer)], for which the EC50 human was determined as 1 nM.
On the same count and under the same terms, with HGEGTFTSDVSSYLEGCAAKEFIAWLVKGRG (Unconjugated peptide) [HGEGTFTSDVSSYLEGCAAKEFIAWLVKGRG (SEQ ID NO: 6)] the figure was 0.24 nM; with B1, 0.2 nM.
In the case of HGEGTFTSDVSSYLEGCAAKEFIAWLVKGRGSSGAPPPS (Unconjugated peptide) [HGEGTFTSDVSSYLEGCAAKEFIAWLVKGRGSSGAPPPS (SEQ ID NO: 7)], the EC50 human amounted to 0.1 nM.
Same read-out and setting: under HGEGTFTSDVSSYLEGCAAKEFIAWLKNGGPSSGAPPPS (Unconjugated peptide) [HGEGTFTSDVSSYLEGCAAKEFIAWLKNGGPSSGAPPPS (SEQ ID NO: 8)] stands 0.07 nM; under B2, 0.6 nM.
The molecule B3 had an EC50 human of 0.8 nM.

In the next assay the target is T1, mouse GLP-1 receptor. Description: cell-based or functional assay.
The molecule HGEGTFTSDVSSYLEGC(PEG 20 kDa)AAKEFIAWLVKGRGSSGAPPPS [cgGLP-12 (SEQ ID NO: 7 + 20k PEG monomer)] gave an EC50 mouse of 8 nM.
Same read-out and setting: under HGEGTFTSDVSSYLEGC([maleimide-mPEG 20 kDa])AAKEFIAWLVKGRG [cgGLP-1 (SEQ ID NO: 6 + 20K PEG)] stands 245 nM.
On the same count and under the same terms, under HGEGTFTSDVSSYLEGC(PEG 30 kDa)AAKEFIAWLVKGRG [cgGLP-7 (SEQ ID NO: 6 + 30k PEG)] stands 2.9 nM.
As for HGEGTFTSDVSSYLEGC(branched PEG 40 kDa)AAKEFIAWLVKGRG [cgGLP-2 (SEQ ID NO: 6 + 40k branched PEG)], the EC50 mouse came to 3.6 nM.
The molecule HGEGTFTSDVSSYLEGCAAKEFIAWLVKGRG (Unconjugated peptide) [HGEGTFTSDVSSYLEGCAAKEFIAWLVKGRG (SEQ ID NO: 6)] gave an EC50 mouse of 1.4 nM.
Molecule B1 returned an EC50 mouse of 5.7 nM.
For HGEGTFTSDVSSYLEGCAAKEFIAWLVKGRGSSGAPPPS (Unconjugated peptide) [HGEGTFTSDVSSYLEGCAAKEFIAWLVKGRGSSGAPPPS (SEQ ID NO: 7)], the EC50 mouse is 0.8 nM.
Same read-out and setting: under HGEGTFTSDVSSYLEGCAAKEFIAWLKNGGPSSGAPPPS (Unconjugated peptide) [HGEGTFTSDVSSYLEGCAAKEFIAWLKNGGPSSGAPPPS (SEQ ID NO: 8)] stands 0.3 nM; under B2, 4 nM.
On the same count and under the same terms, with B3 the figure was 2 nM.

Another assay concerns the target T2, human GLP-1 receptor. Description: cell-based or functional assay. This is another data set of the same source.
The molecule HGEGTFTSDVSSYLEGQAAKEFIAWLVKGRGC(PEG 30 kDa)SG [cgGLP-8 (SEQ ID NO: 10 + 30k PEG)] came in with an EC50 human of 0.4 nM.
Regarding B4, the EC50 human was above 100 nM.
The molecule HGEGTFTSDVSSYLEGQAAKEFIAWLVKGRGCSG [HGEGTFTSDVSSYLEGQAAKEFIAWLVKGRGCSG (SEQ ID NO: 10)] displayed an EC50 human of 0.05 nM.

The target in a further assay is T1, mouse GLP-1 receptor. Put plainly: cell-based or functional assay. The source holds these as a separate data set.
As for HGEGTFTSDVSSYLEGQAAKEFIAWLVKGRGC(PEG 30 kDa)SG [cgGLP-8 (SEQ ID NO: 10 + 30k PEG)], the EC50 mouse was found to be 3 nM.
On to HGEGTFTSDVSSYLEGQAAKEFIAWLVKGRGCSG [HGEGTFTSDVSSYLEGQAAKEFIAWLVKGRGCSG (SEQ ID NO: 10)], for which the EC50 mouse is 0.32 nM.

The target in another assay is T2, human GLP-1 receptor. Description: 125I-GLP-1 displacement, membranes of CHOK1 cells expressing human GLP-1 receptor. The procedure: Membrane Preparation. […] Cells were sedimented at 1500 rpm for 10 minutes. The resulting pellets were homogenized in 15 mls of ice cold sucrose buffer (25 mM Tris-HCl, 0.32 M Sucrose, 0.25 g/L, sodium azide, pH 7.4) with a motorized, glass fitted, Teflon homogenizer. The homogenate was centrifuged at 48,000×g at 4° C. for 10 minutes, resuspended in 25 ml assay buffer (50 mM Tris-HCl, 5 mM MgCl₂, 10 mg/ml protease-free BSA, 0.1 mg/ml STI, and 0.1 mg/ml Pefabloc, pH 7.4) with a Tissue-Tearor (Biospec Products), then centrifuged again at 48,000×g for 10 minutes. The pellets were homogenized for a third time in 15 ml assay buffer using the Tissue-Tearor and again centrifuged at 48,000×g for 10 minutes. The resulting pellet was resuspended in assay buffer at a wet weight concentration of 4 mg/ml.
Ligand Binding Assay. Binding assays were performed in 96-well U-bottom plates. […] The reaction was terminated by rapid filtration through Unfilter-96 GF/C glass fiber filter plates (FilterMate 196 Packard Harvester, PerkinElmer, Shelton, Conn.) pre-soaked in 0.5% polyethylenimine, followed by three washes with 300 μl of cold 50 mM Tris-HCl, pH 7.4. Bound radioactivity was determined using a TopCount microplate scintillation and luminescence counter (Packard Instrument Company, PerkinElmer, Shelton, Conn.). Nonlinear regression analyses of resulting concentration curves were performed using GraphPad Prism (GraphPad Software, Inc., San Diego, Calif.).
In vitro experiments were conducted to determine receptor binding and potency for a class of molecules having a glycine substitution at position 8, a cysteine substitution at position 22 and a variable C-terminus.
The term IC50 denotes the concentration needed to halve the response being measured. A lower IC50 goes with higher potency. In the case of HGEGTFTSDVSSYLEGC(PEG 20 kDa)AAKEFIAWLVKGRGSSGAPPPS [cgGLP-12 (SEQ ID NO: 7 + 20k PEG monomer)], the half-maximal inhibitory concentration (IC50) is 1000 nM.
As for HGEGTFTSDVSSYLEGCAAKEFIAWLVKGRG (Unconjugated peptide) [HGEGTFTSDVSSYLEGCAAKEFIAWLVKGRG (SEQ ID NO: 6)], the IC50 is 70 nM.
Molecule B1 gave a 50% inhibitory concentration (IC50) of 84 nM.
On the same count and under the same terms, under HGEGTFTSDVSSYLEGCAAKEFIAWLVKGRGSSGAPPPS (Unconjugated peptide) [HGEGTFTSDVSSYLEGCAAKEFIAWLVKGRGSSGAPPPS (SEQ ID NO: 7)] stands 100 nM; under HGEGTFTSDVSSYLEGCAAKEFIAWLKNGGPSSGAPPPS (Unconjugated peptide) [HGEGTFTSDVSSYLEGCAAKEFIAWLKNGGPSSGAPPPS (SEQ ID NO: 8)], 100 nM; under B2, 300 nM.
Same read-out and setting: with B3 the figure was 300 nM.
